Legend:
HeLa Kyoto [1] = experiment: solubility change mitosis vs G1/S (difference of NP-40 vs SDS log2 ratios) (log2 ratio difference); higher = more soluble in mitosis
HeLa Kyoto [2] = experiment: melting temperature (median over replicates), in situ; higher = more thermally stable
HeLa Kyoto [3] = experiment: solubility in G1/S (NP-40 vs SDS abundance) (log2 ratio); higher = more soluble; conditions: cell cycle stage: G1/S
HeLa Kyoto [4] = experiment: thermal stability score vs G1/S (z-score of summed log2 fold changes over temperatures); higher = more thermally stable than in G1/S
[5] = cell cycle stage: early G1 (4.5 h after nocodazole release)
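Wherever melting temperature (median over replicates), in situ is given: HeLa Kyoto cells synchronized by double thymidine or nocodazole block, proteins quantified by TMT10plex mass spectrometry, three independent biological replicates.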
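Wherever solubility change mitosis vs G1/S (difference of NP-40 vs SDS log2 ratios) is given: synchronized HeLa Kyoto cells (double thymidine block for G1/S, nocodazole release for mitosis), protein amounts in NP-40 versus SDS lysates quantified by mass spectrometry, three biological replicates.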
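Wherever solubility in G1/S (NP-40 vs SDS abundance) is given: HeLa Kyoto cells arrested at G1/S by double thymidine block, proteins quantified by TMT10plex mass spectrometry in mild NP-40 versus SDS extracts, three biological replicates.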
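Wherever thermal stability score vs G1/S (z-score of summed log2 fold changes over temperatures) is given: synchronized HeLa Kyoto cells, proteins quantified by TMT10plex mass spectrometry, three biological replicates, mitosis taken 0.5 h after nocodazole release, G1/S directly after double thymidine block.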

Row | Sequence | solubility change mitosis (log2) (HeLa Kyoto [1]) | melting temperature (HeLa Kyoto [2]; cell cycle stage: G1/S) [°C] | melting temperature (HeLa Kyoto [2]; cell cycle stage: mitosis) [°C] | solubility in G1/S (log2) (HeLa Kyoto [3]) | thermal stability score (HeLa Kyoto [4]; [5]) | thermal stability score (HeLa Kyoto [4]; cell cycle stage: mitosis)
1 | MPLLFLERFPWPSLRTYTGLSGLALLGTIISAYRALSQPEAGPGEPDQLTASLQPEPPAPARPSAGGPRARDVAQYLLSDSLFVWVLVNTACCVLMLVAKLIQCIVFGPLRVSERQHLKDKFWNFIFYKFIFIFGVLNVQTVEEVVMWCLWFAGLVFLHLMVQLCKDRFEYLSFSPTTPMSSHGRVLSLLVAMLLSCCGLAAVCSITGYTHGMHTLAFMAAESLLVTVRTAHVILRYVIHLWDLNHEGTWEGKGTYVYYTDFVMELTLLSLDLMHHIHMLLFGNIWLSMASLVIFMQLRYLFHEVQRRIRRHKNYLRVVGNMEARFAVATPEELAVNNDDCAICWDSMQAARKLPCGHLFHNSCLRSWLEQDTSCPTCRMSLNIADNNRVREEHQGENLDENLVPVAAAEGRPRLNQHNHFFHFDGSRIASWLPSFSVEVMHTTNILGITQASNSQLNAMAHQIQEMFPQVPYHLVLQDLQLTRSVEITTDNILEGRIQVPFPTQRSDSIRPALNSPVERPSSDQEEGETSAQTERVPLDLSPRLEETLDFGEVEVEPSEVEDFEARGSRFSKSADERQRMLVQRKDELLQQARKRFLNKSSEDDAASESFLPSEGASSDPVTLRRRMLAAAAERRLQKQQTS [AMFR] | -0.081 | 51.3 | 51.3 | -0.387 | 0.15 | -0.174
2 | MPLTGVEPARMNRKKGDKGFESPRPYKLTHQVVCINNINFQRKSVVGFVELTIFPTVANLNRIKLNSKQCRIYRVRINDLEAAFIYNDPTLEVCHSESKQRNLNYFSNAYAAAVSAVDPDAGNGELCIKVPSELWKHVDELKVLKIHINFSLDQPKGGLHFVVPSVEGSMAERGAHVFSCGYQNSTRFWFPCVDSYSELCTWKLEFTVDAAMVAVSNGDLVETVYTHDMRKKTFHYMLTIPTAASNISLAIGPFEILVDPYMHEVTHFCLPQLLPLLKHTTSYLHEVFEFYEEILTCRYPYSCFKTVFIDEAYVEVAAYASMSIFSTNLLHSAMIIDETPLTRRCLAQSLAQQFFGCFISRMSWSDEWVLKGISGYIYGLWMKKTFGVNEYRHWIKEELDKIVAYELKTGGVLLHPIFGGGKEKDNPASHLHFSIKHPHTLSWEYYSMFQCKAHLVMRLIENRISMEFMLQVFNKLLSLASTASSQKFQSHMWSQMLVSTSGFLKSISNVSGKDIQPLIKQWVDQSGVVKFYGSFAFNRKRNVLELEIKQDYTSPGTQKYVGPLKVTVQELDGSFNHTLQIEENSLKHDIPCHSKSRRNKKKKIPLMNGEEVDMDLSAMDADSPLLWIRIDPDMSVLRKVEFEQADFMWQYQLRYERDVVAQQESILALEKFPTPASRLALTDILEQEQCFYRVRMSACFCLAKIANSMVSTWTGPPAMKSLFTRMFCCKSCPNIVKTNNFMSFQSYFLQKTMPVAMALLRDVHNLCPKEVLTFILDLIKYNDNRKNKFSDNYYRAEMIDALANSVTPAVSVNNEVRTLDNLNPDVRLILEEITRFLNMEKLLPSYRHTITVSCLRAIRVLQKNGHVPSDPALFKSYAEYGHFVDIRIAALEAVVDYTKVDRSYEELQWLLNMIQNDPVPYVRHKILNMLTKNPPFTKNMESPLCNEALVDQLWKLMNSGTSHDWRLRCGAVDLYFTLFGLSRPSCLPLPELGLVLNLKEKKAVLNPTIIPESVAGNQEAANNPSSHPQLVGFQNPFSSSQDEEEIDMDTVHDSQAFISHHLNMLERPSTPGLSKYRPASSRSALIPQHSAGCDSTPTTKPQWSLELARKGTGKEQAPLEMSMHPAASAPLSVFTKESTASKHSDHHHHHHHEHKKKKKKHKHKHKHKHKHDSKEKDKEPFTFSSPASGRSIRSPSLSD [TAF2] | 0.123 | 49.6 | 50.2 | -0.657 | 0.286 | 0.175
3 | MPLVKRNIDPRHLCHTALPRGIKNELECVTNISLANIIRQLSSLSKYAEDIFGELFNEAHSFSFRVNSLQERVDRLSVSVTQLDPKEEELSLQDITMRKAFRSSTIQDQQLFDRKTLPIPLQETYDVCEQPPPLNILTPYRDDGKEGLKFYTNPSYFFDLWKEKMLQDTEDKRKEKRKQKQKNLDRPHEPEKVPRAPHDRRREWQKLAQGPELAEDDANLLHKHIEVANGPASHFETRPQTYVDHMDGSYSLSALPFSQMSELLTRAEERVLVRPHEPPPPPPMHGAGDAKPIPTCISSATGLIENRPQSPATGRTPVFVSPTPPPPPPPLPSALSTSSLRASMTSTPPPPVPPPPPPPATALQAPAVPPPPAPLQIAPGVLHPAPPPIAPPLVQPSPPVARAAPVCETVPVHPLPQGEVQGLPPPPPPPPLPPPGIRPSSPVTVTALAHPPSGLHPTPSTAPGPHVPLMPPSPPSQVIPASEPKRHPSTLPVISDARSVLLEAIRKGIQLRKVEEQREQEAKHERIENDVATILSRRIAVEYSDSEDDSEFDEVDWLE [WASF1] | 0.025 | 51.5 | 52 | 0.124 | -0.0852 | 0.459
4 | MPMWAGGVGSPRRGMAPASTDDLFARKLRQPARPPLTPHTFEPRPVRGPLLRSGSDAGEARPPTPASPRARAHSHEEASRPAATSTRLFTDPLALLGLPAEEPEPAFPPVLEPRWFAHYDVQSLLFDWAPRSQGMGSHSEASSGTLASAEDQAASSDLLHGAPGFVCELGGEGELGLGGPASPPVPPALPNAAVSILEEPQNRTSAYSLEHADLGAGYYRKYFYGKEHQNFFGMDESLGPVAVSLRREEKEGSGGGTLHSYRVIVRTTQLRTLRGTISEDALPPGPPRGLSPRKLLEHVAPQLSPSCLRLGSASPKVPRTLLTLDEQVLSFQRKVGILYCRAGQGSEEEMYNNQEAGPAFMQFLTLLGDVVRLKGFESYRAQLDTKTDSTGTHSLYTTYQDHEIMFHVSTMLPYTPNNQQQLLRKRHIGNDIVTIVFQEPGSKPFCPTTIRSHFQHVFLVVRAHTPCTPHTTYRVAVSRTQDTPAFGPALPAGGGPFAANADFRAFLLAKALNGEQAAGHARQFHAMATRTRQQYLQDLATNEVTTTSLDSASRFGLPSLGGRRRAAPRGPGAELQAAGSLVWGVRAAPGARVAAGAQASGPEGIEVPCLLGISAEALVLVAPRDGRVVFNCACRDVLAWTFSEQQLDLYHGRGEAITLRFDGSPGQAVGEVVARLQLVSRGCETRELALPRDGQGRLGFEVDAEGFVTHVERFTFAETAGLRPGARLLRVCGQTLPSLRPEAAAQLLRSAPKVCVTVLPPDESGRPRRSFSELYTLSLQEPSRRGAPDPVQDEVQGVTLLPTTKQLLHLCLQDGGSPPGPGDLAEERTEFLHSQNSLSPRSSLSDEAPVLPNTTPDLLLATTAKPSVPSADSETPLTQDRPGSPSGSEDKGNPAPELRASFLPRTLSLRNSISRIMSEAGSGTLEDEWQAISEIASTCNTILESLSREGQPIPESGDPKGTPKSDAEPEPGNLSEKVSHLESMLRKLQEDLQKEKADRAALEEEVRSLRHNNRRLQAESESAATRLLLASKQLGSPTADLA [SIPA1] | 0.0512 | 50.8 | 51.4 | -0.217 | 1.19 | 0.467
5 | MPNIKIFSGSSHQDLSQKIADRLGLELGKVVTKKFSNQETCVEIGESVRGEDVYIVQSGCGEINDNLMELLIMINACKIASASRVTAVIPCFPYARQDKKDKSRAPISAKLVANMLSVAGADHIITMDLHASQIQGFFDIPVDNLYAEPAVLKWIRENISEWRNCTIVSPDAGGAKRVTSIADRLNVDFALIHKERKKANEVDRMVLVGDVKDRVAILVDDMADTCGTICHAADKLLSAGATRVYAILTHGIFSGPAISRINNACFEAVVVTNTIPQEDKMKHCSKIQVIDISMILAEAIRRTHNGESVSYLFSHVPL [PRPS1] | -0.136 | 57.3 | 57.4 | -0.185 | 1.55 | 0.473
6 | MPNIVLFSGSSHQDLSQRVADRLGLELGKVVTKKFSNQETSVEIGESVRGEDVYIIQSGCGEINDNLMELLIMINACKIASSSRVTAVIPCFPYARQDKKDKSRAPISAKLVANMLSVAGADHIITMDLHASQIQGFFDIPVDNLYAEPAVLQWIRENIAEWKNCIIVSPDAGGAKRVTSIADRLNVEFALIHKERKKANEVDRMVLVGDVKDRVAILVDDMADTCGTICHAADKLLSAGATKVYAILTHGIFSGPAISRINNAAFEAVVVTNTIPQEDKMKHCTKIQVIDISMILAEAIRRTHNGESVSYLFSHVPL [PRPS2] | -0.112 | 55.1 | 55.9 | -0.014 | 3.16 | 2.12
7 | MPNQGEDCYFFFYSTCTKGDSCPFRHCEAAIGNETVCTLWQEGRCFRQVCRFRHMEIDKKRSEIPCYWENQPTGCQKLNCAFHHNRGRYVDGLFLPPSKTVLPTVPESPEEEVKASQLSVQQNKLSVQSNPSPQLRSVMKVESSENVPSPTHPPVVINAADDDEDDDDQFSEEGDETKTPTLQPTPEVHNGLRVTSVRKPAVNIKQGECLNFGIKTLEEIKSKKMKEKSKKQGEGSSGVSSLLLHPEPVPGPEKENVRTVVRTVTLSTKQGEEPLVRLSLTERLGKRKFSAGGDSDPPLKRSLAQRLGKKVEAPETNIDKTPKKAQVSKSLKERLGMSADPDNEDATDKVNKVGEIHVKTLEEILLERASQKRGELQTKLKTEGPSKTDDSTSGARSSSTIRIKTFSEVLAEKKHRQQEAERQKSKKDTTCIKLKIDSEIKKTVVLPPIVASRGQSEEPAGKTKSMQEVHIKTLEEIKLEKALRVQQSSESSTSSPSQHEATPGARRLLRITKRTGMKEEKNLQEGNEVDSQSSIRTEAKEASGETTGVDITKIQVKRCETMREKHMQKQQEREKSVLTPLRGDVASCNTQVAEKPVLTAVPGITRHLTKRLPTKSSQKVEVETSGIGDSLLNVKCAAQTLEKRGKAKPKVNVKPSVVKVVSSPKLAPKRKAVEMHAAVIAAVKPLSSSSVLQEPPAKKAAVAVVPLVSEDKSVTVPEAENPRDSLVLPPTQSSSDSSPPEVSGPSSSQMSMKTRRLSSASTGKPPLSVEDDFEKLIWEISGGKLEAEIDLDPGKDEDDLLLELSEMIDS [ZC3H11A] | 0.559 | 45.8 | 48.6 | -0.583 | 2.36 | 7.44
8 | MPPPRTREGRDRRDHHRAPSEEEALEKWDWNCPETRRLLEDAFFREEDYIRQGSEECQKFWTFFERLQRFQNLKTSRKEEKDPGQPKHSIPALADLPRTYDPRYRINLSVLGPATRGSQGLGRHLPAERVAEFRRALLHYLDFGQKQAFGRLAKLQRERAALPIAQYGNRILQTLKEHQVVVVAGDTGCGKSTQVPQYLLAAGFSHVACTQPRRIACISLAKRVGFESLSQYGSQVGYQIRFESTRSAATKIVFLTVGLLLRQIQREPSLPQYEVLIVDEVHERHLHNDFLLGVLQRLLPTRPDLKVILMSATINISLFSSYFSNAPVVQVPGRLFPITVVYQPQEAEPTTSKSEKLDPRPFLRVLESIDHKYPPEERGDLLVFLSGMAEISAVLEAAQTYASHTQRWVVLPLHSALSVADQDKVFDVAPPGVRKCILSTNIAETSVTIDGIRFVVDSGKVKEMSYDPQAKLQRLQEFWISQASAEQRKGRAGRTGPGVCFRLYAESDYDAFAPYPVPEIRRVALDSLVLQMKSMSVGDPRTFPFIEPPPPASLETAILYLRDQGALDSSEALTPIGSLLAQLPVDVVIGKMLILGSMFSLVEPVLTIAAALSVQSPFTRSAQSSPECAAARRPLESDQGDPFTLFNVFNAWVQVKSERSRNSRKWCRRRGIEEHRLYEMANLRRQFKELLEDHGLLAGAQAAQVGDSYSRLQQRRERRALHQLKRQHEEGAGRRRKVLRLQEEQDGGSSDEDRAGPAPPGASDGVDIQDVKFKLRHDLAQLQAAASSAQDLSREQLALLKLVLGRGLYPQLAVPDAFNSSRKDSDQIFHTQAKQGAVLHPTCVFAGSPEVLHAQELEASNCDGSRDDKDKMSSKHQLLSFVSLLETNKPYLVNCVRIPALQSLLLFSRSLDTNGDCSRLVADGWLELQLADSESAIRLLAASLRLRARWESALDRQLAHQAQQQLEEEEEDTPVSPKEVATLSKELLQFTASKIPYSLRRLTGLEVQNMYVGPQTIPATPHLPGLFGSSTLSPHPTKGGYAVTDFLTYNCLTNDTDLYSDCLRTFWTCPHCGLHAPLTPLERIAHENTCPQAPQDGPPGAEEAALETLQKTSVLQRPYHCEACGKDFLFTPTEVLRHRKQHV [DHX34] | -0.0525 | 50.1 | 49.8 | -0.242 | 0.188 | 0.311

From the supplement of paper PMC5998384
